What all share (assay): SEC
The target of assay [1] is CENP-A^H115A/L128A/H4 heterodimer (human, UniProt P49450 1-140; P62805 1-103, H115A | L128A).
For assay [2], the target named is (CENP-A/H4)2 heterotetramer (human, UniProt P49450 1-140; P62805 1-103).
The target of another assay is (CENP-A^S68Q/H4)2 (human, UniProt P49450 1-140; P62805 1-103, S68Q).
Sequence of (CENP-A^S68Q/H4)2 (P49450 whole entry S68Q, one chain of several): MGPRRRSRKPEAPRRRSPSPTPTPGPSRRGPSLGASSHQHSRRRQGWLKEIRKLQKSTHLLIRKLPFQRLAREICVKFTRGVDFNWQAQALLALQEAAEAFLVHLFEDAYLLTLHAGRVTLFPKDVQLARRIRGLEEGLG

Sequence of (CENP-A/H4)2 heterotetramer (P49450 whole entry, one chain of several): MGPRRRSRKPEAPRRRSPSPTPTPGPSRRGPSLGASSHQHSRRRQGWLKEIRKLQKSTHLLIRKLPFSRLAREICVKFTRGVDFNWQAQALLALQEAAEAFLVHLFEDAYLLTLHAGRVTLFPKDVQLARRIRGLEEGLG
Sequence of CENP-A^H115A/L128A/H4 heterodimer (P49450 whole entry H115A/L128A, one chain of several): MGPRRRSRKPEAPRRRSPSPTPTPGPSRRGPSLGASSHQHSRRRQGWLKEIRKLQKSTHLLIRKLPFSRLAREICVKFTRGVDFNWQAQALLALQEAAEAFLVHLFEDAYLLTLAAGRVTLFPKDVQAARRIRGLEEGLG

B1: MBP-HJURP^1–80 (domain or fragment)
chain: MLGTLRAMEGEDVEDDQLLQKLRASRRRFQRRMQRLIEKYNQPFEDTPVVQMATLTYETPQGLRIWGGRLIKERNEGEIQ
Consider B1, for which the binding result (in assay [1]; in assay [2]; with (CENP-A^S68Q/H4)2) was “binds” in each case.

B2: MBP-HJURP^1–80/W66A (domain or fragment)
chain: MLGTLRAMEGEDVEDDQLLQKLRASRRRFQRRMQRLIEKYNQPFEDTPVVQMATLTYETPQGLRIAGGRLIKERNEGEIQ
For B2, the binding result in assay [2] is recorded as “binds”.

B3: MBP-HJURP^1–62 (domain or fragment)
chain: MLGTLRAMEGEDVEDDQLLQKLRASRRRFQRRMQRLIEKYNQPFEDTPVVQMATLTYETPQG
In the case of B3, in assay [2], the binding result is reported as “binds”.

The record behind these values is paper PMC3353549 (Developmental Cell, 2012).
